Here are results for three molecules from paper PMC6349045.

In series [1] the target is T1, NP220 DNA-binding domain (NP220DB) (UniProt Q14966 1240-1478).
T1 sequence: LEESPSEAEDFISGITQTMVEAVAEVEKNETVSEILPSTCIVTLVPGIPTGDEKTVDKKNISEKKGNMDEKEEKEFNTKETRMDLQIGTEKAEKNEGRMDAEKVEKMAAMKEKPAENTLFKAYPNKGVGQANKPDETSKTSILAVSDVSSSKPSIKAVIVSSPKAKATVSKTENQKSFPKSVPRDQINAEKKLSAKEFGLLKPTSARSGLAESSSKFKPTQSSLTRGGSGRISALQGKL
Put plainly: competition.

In series [2] the target is T1, NP220 DNA-binding domain (NP220DB). The experiment in a line: EMSA. A general note: Mobility shift assays separate free from complexed probe on a gel.
Series [3] shares this target. Put plainly: competition. The source holds these as a separate data set.

B1: DNA72 (NP220 sites deleted) (dsDNA)
DNA 1: AGGATATCTGTGGTAAGCAGTTCCTGCTCAGGGCCAAGAACAGATGGTATGCGGTCCAGCCCTCAGCAGTTT
DNA 2: AAACTGCTGAGGGCTGGACCGCATACCATCTGTTCTTGGCCCTGAGCAGGAACTGCTTACCACAGATATCCT
As to B1, the binding result in series [1] is “no binding”.

B2: Bio-DNA84 (MLV U3 LTR fragment) (dsDNA)
DNA 1: AGGATATCTGTGGTAAGCAGTTCCTGCCCCGGCTCAGGGCCAAGAACAGATGGTCCCCAGATGCGGTCCAGCCCTCAGCAGTTT
DNA 2: AAACTGCTGAGGGCTGGACCGCATCTGGGGACCATCTGTTCTTGGCCCTGAGCCGGGGCAGGAACTGCTTACCACAGATATCCT
For B2, the binding result in series [2] was “binds”.

B3: DNA84 (unlabeled) (dsDNA)
DNA 1: AGGATATCTGTGGTAAGCAGTTCCTGCCCCGGCTCAGGGCCAAGAACAGATGGTCCCCAGATGCGGTCCAGCCCTCAGCAGTTT
DNA 2: AAACTGCTGAGGGCTGGACCGCATCTGGGGACCATCTGTTCTTGGCCCTGAGCCGGGGCAGGAACTGCTTACCACAGATATCCT
Turning to B3, the binding result in series [3] is “binds”.
